# According to article doi:10.1101/2023.06.23.546279 (bioRxiv, 2023):
# T1: Mft1 (S. cerevisiae, UniProt P33441 1-392)
# T1 sequence: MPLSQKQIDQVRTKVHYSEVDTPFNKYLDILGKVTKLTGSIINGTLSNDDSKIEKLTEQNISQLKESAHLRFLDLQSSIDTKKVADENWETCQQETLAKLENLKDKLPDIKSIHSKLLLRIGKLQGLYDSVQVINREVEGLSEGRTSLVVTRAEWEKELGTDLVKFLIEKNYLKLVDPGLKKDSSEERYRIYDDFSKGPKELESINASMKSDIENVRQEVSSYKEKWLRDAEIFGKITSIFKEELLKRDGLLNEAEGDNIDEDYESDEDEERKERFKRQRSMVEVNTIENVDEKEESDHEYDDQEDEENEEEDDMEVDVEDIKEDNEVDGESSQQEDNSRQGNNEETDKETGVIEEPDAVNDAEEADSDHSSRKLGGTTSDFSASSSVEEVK
# B1: Hpr1 with a C-terminal FLAG-TEV-2xProtein-A (FTpA) tag (natural protein)
# chain: MSNTEELIQNSIGFLQKTFKALPVSFDSIRHEPLPSSMLHASVLNFEWEPLEKNISAIHDRDSLIDIILKRFIIDSMTNAIEDEEENNLEKGLLNSCIGLDFVYNSRFNRSNPASWGNTFFELFSTIIDLLNSPSTFLKFWPYAESRIEWFKMNTSVEPVSLGESNLISYKQPLYEKLRHWNDILAKLENNDILNTVKHYNMKYKLENFLSELLPINEESNFNRSASISALQESDNEWNRSARERESNRSSDVIFAADYNFVFYHLIICPIEFAFSDLEYKNDVDRSLSPLLDAILEIEENFYSKIKMNNRTRYSLEEALNTEYYANYDVMTPKLPVYMKHSNAMKMDRNEFWANLQNIKESDDYTLRPTIMDISLSNTTCLYKQLTQEDDDYYRKQFILQLCFTTNLIRNLISSDETRNFYKSCYLRENPLSDIDFENLDEVNKKRGLNLCSYICDNRVLKFYKIKDPDFYRVIRKLMSSDEKFTTAKIDGFKEFQNFRISKEKIPPPAFDETFKKFTFIKMGNKLINNVWKIPTGLDKIEQEVKKPEGVYEAAQAKWESKISSETSGGEAKDEIIRQWQTLRFLRSRYLFDFDKVNEKTGVDGLFEEPRKVEALDDSFKEKLLYKINQEHRKKLQDAREYKIGKERKKRALEEEASFPEREQKIKSQRINSASQTEGDELKSEQTQPKGEISEENTKIKSSEVSSQDPDSGVAGEFAPQNTTAQLENPKTEDNNAATSNISNGSSTQDMK
# B2: Thp2 (natural protein)
# chain: MTKEEGRTYFESLCEEEQSLQESQTHLLNILDILSVLADPRSSDDLLTESLKKLPDLHRELINSSIRLRYDKYQTREAQLLEDTKTGRDVAAGVQNPKSISEYYSTFEHLNRDTLRYINLLKRLSVDLAKQVEVSDPSVTVYEMDKWVPSEKLQGILEQYCAPDTDIRGVDAQIKNYLDQIKMARAKFGLENKYSLKERLSTLTKELNHWRKEWDDIEMLMFGDDAHSMKKMIQKIDSLKSEINAPSESYPVDKEGDIVLE
# Assays:
# [1] = target: Tho2 (S. cerevisiae, UniProt P53552 1-1597); assay: affinity purification with mass spectrometry
# Sequence of Tho2 (P53552 whole entry): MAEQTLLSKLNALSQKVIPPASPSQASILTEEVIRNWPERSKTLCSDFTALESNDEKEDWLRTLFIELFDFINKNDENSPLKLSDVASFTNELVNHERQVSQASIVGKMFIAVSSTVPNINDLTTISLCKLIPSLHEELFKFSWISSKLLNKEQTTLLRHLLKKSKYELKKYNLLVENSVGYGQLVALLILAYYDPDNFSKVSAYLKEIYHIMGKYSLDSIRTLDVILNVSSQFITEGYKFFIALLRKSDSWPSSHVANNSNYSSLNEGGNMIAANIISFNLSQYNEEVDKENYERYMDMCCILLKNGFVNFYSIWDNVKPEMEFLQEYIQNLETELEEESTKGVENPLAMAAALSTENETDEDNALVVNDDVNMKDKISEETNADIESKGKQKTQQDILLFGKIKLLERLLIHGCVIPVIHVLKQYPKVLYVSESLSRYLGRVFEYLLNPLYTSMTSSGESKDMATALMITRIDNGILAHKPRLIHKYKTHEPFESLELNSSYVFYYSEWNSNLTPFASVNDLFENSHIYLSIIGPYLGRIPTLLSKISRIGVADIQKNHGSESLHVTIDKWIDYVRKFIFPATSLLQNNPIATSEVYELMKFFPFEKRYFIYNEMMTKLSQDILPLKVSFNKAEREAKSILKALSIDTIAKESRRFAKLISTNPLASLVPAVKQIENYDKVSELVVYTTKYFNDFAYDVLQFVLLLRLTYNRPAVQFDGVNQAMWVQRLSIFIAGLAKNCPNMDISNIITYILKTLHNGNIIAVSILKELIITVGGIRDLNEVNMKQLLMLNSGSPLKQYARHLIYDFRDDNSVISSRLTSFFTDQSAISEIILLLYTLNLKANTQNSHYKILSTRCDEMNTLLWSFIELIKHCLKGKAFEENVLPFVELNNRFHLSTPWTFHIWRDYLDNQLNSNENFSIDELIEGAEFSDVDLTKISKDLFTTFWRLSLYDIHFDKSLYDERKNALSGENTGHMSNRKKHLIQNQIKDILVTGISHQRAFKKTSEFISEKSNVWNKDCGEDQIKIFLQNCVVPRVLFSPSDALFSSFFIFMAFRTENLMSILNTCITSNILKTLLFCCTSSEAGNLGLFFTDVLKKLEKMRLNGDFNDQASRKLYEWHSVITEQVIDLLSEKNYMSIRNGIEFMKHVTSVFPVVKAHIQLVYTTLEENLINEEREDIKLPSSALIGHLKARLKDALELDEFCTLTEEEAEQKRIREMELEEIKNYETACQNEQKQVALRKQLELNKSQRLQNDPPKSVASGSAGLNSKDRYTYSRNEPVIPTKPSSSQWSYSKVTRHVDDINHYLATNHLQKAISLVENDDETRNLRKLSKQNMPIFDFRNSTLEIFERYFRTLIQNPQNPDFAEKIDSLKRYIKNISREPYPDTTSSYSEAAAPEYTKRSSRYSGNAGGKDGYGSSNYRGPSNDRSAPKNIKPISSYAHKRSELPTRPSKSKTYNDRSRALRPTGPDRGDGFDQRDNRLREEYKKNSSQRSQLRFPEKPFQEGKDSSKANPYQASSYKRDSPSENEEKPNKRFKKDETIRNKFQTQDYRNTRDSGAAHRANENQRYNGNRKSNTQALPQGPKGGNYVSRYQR
# [2] = target: T1, Mft1; assay: cross-linking
Binder,binding result [1],binding result [2]
B1,binds,–
B2,–,binds
